Measurements published in paper PMC9170038, “Crowdsourced RNA design discovers diverse, reversible, efficient, self-contained molecular switches”.

B1: Eterna 7723566 (Exclusion - Tryptophan A) (ssRNA)
RNA: AUGUCGUUAUAGUGAGUGAUGUUCACUGUGCGAGGACCGGUACGGCCGCCACUCGAGAGUGGUGGACACUGAGUCACUCUGACAC
B2: Eterna 7714851 (Same State - Theophylline B) (ssRNA)
RNA: AGAACUGUCUGAGAUACCAGCCAGGAAGUGAUGUUUCCAGCUCCACGAAAGUGGAGCCAUGGCCCUUGGCAGCUCAGACAGUUCA
B3: Eterna 7754813 (Same State - Tryptophan B) (ssRNA)
RNA: UAGUAGCUCUCGGCCGCCACUCCUCAGUGAUGUUGAGAUAUUAAGAGCCAAUUGGCUCAUAUAAAGAGGACCGGGAGAGCUACAU
B4: Eterna 7739921 (Exclusion - Arginine B) (ssRNA)
RNA: UGAUAGGACAGAAGGAGCGGCAGUGAUGUUGCCAAAAGGGUAAGGUGUCAAAAGACACCCUGCCAGGUAGGUCGCUGUCCUAUCU
B5: Eterna 7682834 (Same State - Tryptophan A) (ssRNA)
RNA: UGUCAUGGAAACAUGAACGUUGAUGUUCGACGAGGACCGGUACGGCCGCCACUCGAGUAAUAGUCAGUGAUGUUGACUUGUUUAA
B6: Eterna 7734297 (Exclusion - Theophylline B) (ssRNA)
RNA: GGCCGAUGGUGCGAUACCAGCUUGAGUGUACUGGCCAGGUACAUGAGGAUCACCCAUGUAAGCCCUUGGCAGCGCGUCAGAGGCC
B7: Eterna 7685253 (Same State - Tryptophan B) (ssRNA)
RNA: AGACGCCAGUCGGCCGCCACUCACAGCAGUGAUGUUGCUGAAAAUCUAGAAGAGUGAUGUUCUUAGAGGACCGGGACUCCAGUCG
B8: Eterna 7684757 (Exclusion - Tryptophan B) (ssRNA)
RNA: AAUAAAAUCACGGCCGCCACUGAUUACCAUAUUAGGAGUGAUGUUCCUAUGACUAUAUAAUUUAACAGGACCGGGUGAAUAUUUA
B9: Eterna 6102128 (Same State NG 3) (ssRNA)
RNA: AAAACAUGAGGAUCACCCAUGUAAAUAUCGGUUAAUUGUUGUGAGGAUAUACUAAAUUUUAAGAAGUAGAAGGCACUGGGUACA
B10: Eterna 7670643 (Exclusion - Theophylline B) (ssRNA)
RNA: UGACAUUGCUCAGAUACCAGACGUGAGCAUCAGCCAUGUGCCAACAAGUACAAAAUAAAUGUCCCUUGGCAGCUGAGCAAUGUCU
B11: Eterna 7709711 (Same State - Tryptophan B) (ssRNA)
RNA: UAUAUAGUGACGGCCGCCACUAUUGUGAUGUAGUUGUUAGAGUGAUGUUUUGUUGUUUGAUUUUGUAGGACCGGGUUAUAUGUUA
B12: Eterna 7681870 (Exclusion - Theophylline B) (ssRNA)
RNA: CCUAUCUCAUACGAUACCAGUCAACGAGUGAUGUUCGAAUAAAUAAAUUUGCCAAAUAAUGACCCUUGGCAGCGUAUGGGAUAGG
B13: Eterna 7712196 (Same State - FMN B) (ssRNA)
RNA: AGAGUUAUGCGAGGAUAUGCAGUUAGUACUCAAAGAGUACUAACGCAGAGUGAUGUUCUGUGAAACGCAGAAGGUGCAUAACUCA
B14: Eterna 7687729 (Same State - FMN B) (ssRNA)
RNA: AUUUUUAACUGAGGAUAUCGAAUUUAUGUAGUGAUGUUACUUUAAAUUAAAAUUUUAAUUUCUUAACGAGAAGGCAGAAUAAUUA
B15: Eterna 6423537 (Small Loop Exclusion NG 1) (ssRNA)
RNA: GAGUAGAUCCGAGGAUAUACAAUCCGGAAACGGUACAUGAGGAUCACCCAUGUAGAAGGCGGAUCUACAGGUACUAAAGUACCU
B16: Eterna 7685224 (Exclusion - Theophylline B) (ssRNA)
RNA: AAUUUAUUAACUGAUACCAGACUUAAUUAAUUGUAAAUUACUAGUGAUGUUAGUGAUUCUGUCCCUUGGCAGCAGUAUUUAUUAA
B17: Eterna 12408 (Exclusion 4) (ssRNA)
RNA: CAUUUGUGAGGAUAUCAGGUGUGCUAGCGUACUGGUACAUCUGAGAAGGCACAUGAGGAUCACCCAUGUUUCUU
B18: Eterna 12520 (Exclusion 2) (ssRNA)
RNA: AAACAGGGAGGAUAUACAUAGAUCCUCUAACCUAAUUGGUCACAUGAGGAUCACCCAUGUAGAAGGCCCUUAGG
B19: Eterna 6393566 (Inverted Small Loop Exclusion NG 3) (ssRNA)
RNA: AGCACGAAAGUGCAACGAUGUACGAGAAGGACAUGAGGAUCACCCAUGUUGCUGUAACUGCUUAUGUAGGAUAUCGUACAUCGA
B20: Eterna 6108976 (Same State NG 2) (ssRNA)
RNA: GUAGCAUACCGAGGAUAUUCAUAUAAUAAAUAAACAUGAGGACCACCCAUGUGGCGAAAGCCUUGGGAGAAGGCGGAAUGCUAC
B21: Eterna 1541 (Same State - FMN A) (ssRNA)
RNA: AAGUGGGAACGGCCCAAUAAAGUGUUUGUCAAGGAUAUUAUUCACAUAAGAAGGUGACAGACCACCUCCGGAGUGAUGUUUUGGA
B22: Eterna 7682758 (Exclusion - Arginine A) (ssRNA)
RNA: AAUUUACAUUAAUUAUUUAAAGGUUCAGAAGGAGCGUGAAUUAACACAGGUAGGUCGCUGAGCGAGUGAUGUUCGCUAUAUACUA
B23: Eterna 1268 (Exclusion - Tryptophan B) (ssRNA)
RNA: AAGCCAUACUCGGCCGCCACUUACUUCGUUGCAGUGAUGUUGCACACGAAUCCGUCAUAGCAAAUAAGGACCGGGAGAUAUACCG
B24: Eterna 6398784 (Exclusion NG 1) (ssRNA)
RNA: CCUGCACCUCAAGGAUAUCCAGUCGAAACGACUGGAGAAGGUGAGGAUCACCCACCUAGCCUGACGAAAGUCAGGCAUGCAGGA
B25: Eterna 7734632 (Exclusion - FMN B) (ssRNA)
RNA: CAUACGCAUGGAGGAUAUGAGAUUUUUCAUAUUAUUUUUUAUUCUCAGUGAUGUUGGGAUUUAUAAUCAGAAGGCCAUGUGUAUG
B26: Eterna 7672999 (Same State - Tryptophan B) (ssRNA)
RNA: UGGUACAUGGCGGCCGCCACUUCACGUAAAAUAAAAACUUGAGGAUCACCCAAGUAAUAAGUUGGGAGGACCGGGUCAUGUACCU
B27: Eterna 7687231 (Exclusion - Arginine A) (ssRNA)
RNA: AAUGUACAAGUGAUGUUUGUACUUUCCGAAGGAGCGUCUAAUAAGACAGGUAGGUCGCGGAUUCUCUAAAUUAUCAGGUCAUUAA
B28: Eterna 12456 (Exclusion 4) (ssRNA)
RNA: GUAAAGUGAGGAUAUGGUAAAUUAAUUAUUAAUUAAUUAAUCCAGAAGGCACAUGAGGAUCACCCAUGUAAUUG
B29: Eterna 7722469 (Exclusion - FMN A) (ssRNA)
RNA: AUUUAGACGAGUGAUGUUCGUGUUAUUACAGAGGAUAUGCGUAAUUGCAGAAGGCUGUAUUUAUAUAUGUUAUGUAGUUUUAAAA

Biological target: MS2 coat protein, dlFG mutant (Escherichia phage MS2, UniProt P03612, del68-81insG)
Assay: 4 mM Mg2+; no ligand; RNA-MaP array; 100 mM Tris-HCl pH 7.5, 80 mM KCl, 4 mM MgCl2, 0.1 mg/mL BSA, 1 mM DTT, 0.01 mg/mL yeast tRNA, 0.01% Tween-20; protein 1.5 nM to 3 uM; 37 C (Table S3)
Settings: chain copies: 2; label: tethered by stalled RNA polymerase

Binder | Kd
B1 | > 3000 nM
B2 | > 3000 nM
B3 | > 3000 nM
B4 | > 3000 nM
B5 | > 3000 nM
B6 | 10.6 nM
B7 | > 3000 nM
UUUUCAGAACUUAUUU (ssRNA) [Eterna 3 (ShortRNAControl)] | > 3000 nM
B8 | > 3000 nM
B9 | 24.4 nM
B10 | 16.6 nM
B11 | > 3000 nM
B12 | > 3000 nM
B13 | > 3000 nM
AAAGCAUGACGCGCUUUCAAGCGUGGCGAGUAUAAA (ssRNA) [Eterna 2 (No-binding control)] | > 3000 nM
B14 | > 3000 nM

Binder | Kd
B15 | 5.63 nM
B16 | > 3000 nM
B17 | 15.8 nM
B18 | 11.8 nM
B19 | 5.14 nM
B20 | 1050 nM
B21 | > 3000 nM
B22 | > 3000 nM
B23 | > 3000 nM
B24 | 14.4 nM
B25 | > 3000 nM
B26 | 19 nM
B27 | > 3000 nM
B28 | 24.8 nM
B29 | > 3000 nM
